T1: FcγRIIb extracellular domain with C-terminal His tag (human, UniProt P31994 43-217)
T1 construct: extracellular domain; Expressed in FreeStyle293 cells; used as analyte in Biacore; also called FcgRIIb; 2b; not shown: C-terminal His tag
T1 sequence (looked up): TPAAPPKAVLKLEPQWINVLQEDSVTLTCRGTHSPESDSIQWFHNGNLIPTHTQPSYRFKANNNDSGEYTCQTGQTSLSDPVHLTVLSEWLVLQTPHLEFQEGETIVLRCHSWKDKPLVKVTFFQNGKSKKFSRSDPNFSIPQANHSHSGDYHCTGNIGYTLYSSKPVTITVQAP

B1: GpH7-A5/GpH7-B3 variant S267_10E/GpL16-k0 (He Ab) (antibody, human IgG1, kappa)
heavy 1: not shown
heavy 2: not shown
light: DIVMTQSPLSLPVTPGEPASISCQASESLVHSNRNTYLHWYLQKPGQSPQLLIYKVSNRFSGVPDRFSGSGSGTDFTLKISRVEAEDVGVYYCSQNTHVPPTFGQGTKVEIERTVAAPSVFIFPPSDEQLKSGTASVVCLLNNFYPREAKVQWKVDNALQSGNSQESVTEQDSKDSTYSLSSTLTLSKADYEKHKVYACEVTHQGLSSPVTKSFNRGEC
notes: Substitution in one H chain only; position in EU numbering; also called S267E heterodimerized antibody
B2: GpH7-A5/GpH7-B3 variant S337_10E/GpL16-k0 (He Ab) (antibody, human IgG1, kappa)
heavy 1: not shown
heavy 2: not shown
light: B1 light
notes: Substitution in one H chain only; position in EU numbering; also called S337E heterodimerized antibody
B3: GpH7-A5/GpH7-B3 variant S267_03V/GpL16-k0 (He Ab) (antibody, human IgG1, kappa)
heavy 1: not shown
heavy 2: not shown
light: B1 light
notes: Substitution in one H chain only; position in EU numbering; also called S267V heterodimerized antibody
B4: GpH7-A5/GpH7-B3 variant S298_08L/GpL16-k0 (He Ab) (antibody, human IgG1, kappa)
heavy 1: not shown
heavy 2: not shown
light: B1 light
notes: Substitution in one H chain only; position in EU numbering; also called S298L heterodimerized antibody
B5: GpH7-A5/GpH7-B3 variant Y300_19Q/GpL16-k0 (He Ab) (antibody, human IgG1, kappa)
heavy 1: not shown
heavy 2: not shown
light: B1 light
notes: Substitution in one H chain only; position in EU numbering; also called Y300Q heterodimerized antibody
B6: GpH7-A5/GpH7-B3 variant S267_02A/GpL16-k0 (He Ab) (antibody, human IgG1, kappa)
heavy 1: not shown
heavy 2: not shown
light: B1 light
notes: Substitution in one H chain only; position in EU numbering; also called S267A heterodimerized antibody
B7: GpH7-A5/GpH7-B3 variant S239_01G/GpL16-k0 (He Ab) (antibody, human IgG1, kappa)
heavy 1: not shown
heavy 2: not shown
light: B1 light
notes: Substitution in one H chain only; position in EU numbering; also called S239G heterodimerized antibody
B8: GpH7-A5/GpH7-B3 variant S239_18N/GpL16-k0 (He Ab) (antibody, human IgG1, kappa)
heavy 1: not shown
heavy 2: not shown
light: B1 light
notes: Substitution in one H chain only; position in EU numbering; also called S239N heterodimerized antibody
B9: GpH7-A5/GpH7-B3 variant S267_09D/GpL16-k0 (He Ab) (antibody, human IgG1, kappa)
heavy 1: not shown
heavy 2: not shown
light: B1 light
notes: Substitution in one H chain only; position in EU numbering; also called S267D heterodimerized antibody
B10: GpH7-A5/GpH7-B3 variant S337_14T/GpL16-k0 (He Ab) (antibody, human IgG1, kappa)
heavy 1: not shown
heavy 2: not shown
light: B1 light
notes: Substitution in one H chain only; position in EU numbering; also called S337T heterodimerized antibody
B11: GpH7-A5/GpH7-B3 variant P271_08L/GpL16-k0 (He Ab) (antibody, human IgG1, kappa)
heavy 1: not shown
heavy 2: not shown
light: B1 light
notes: Substitution in one H chain only; position in EU numbering; also called P271L heterodimerized antibody
B12: GpH7-A5/GpH7-B3 variant P331_04F/GpL16-k0 (He Ab) (antibody, human IgG1, kappa)
heavy 1: not shown
heavy 2: not shown
light: B1 light
notes: Substitution in one H chain only; position in EU numbering; also called P331F heterodimerized antibody
B13: GpH7-A5/GpH7-B3 variant S267_14T/GpL16-k0 (He Ab) (antibody, human IgG1, kappa)
heavy 1: not shown
heavy 2: not shown
light: B1 light
notes: Substitution in one H chain only; position in EU numbering; also called S267T heterodimerized antibody
B14: GpH7-A5/GpH7-B3 variant S267_07I/GpL16-k0 (He Ab) (antibody, human IgG1, kappa)
heavy 1: not shown
heavy 2: not shown
light: B1 light
notes: Substitution in one H chain only; position in EU numbering; also called S267I heterodimerized antibody
B15: GpH7-A5/GpH7-B3 variant S239_08L/GpL16-k0 (He Ab) (antibody, human IgG1, kappa)
heavy 1: not shown
heavy 2: not shown
light: B1 light
notes: Substitution in one H chain only; position in EU numbering; also called S239L heterodimerized antibody
B16: GpH7-A5/GpH7-B3 variant S267_08L/GpL16-k0 (He Ab) (antibody, human IgG1, kappa)
heavy 1: not shown
heavy 2: not shown
light: B1 light
notes: Substitution in one H chain only; position in EU numbering; also called S267L heterodimerized antibody
B17: GpH7-A5/GpH7-B3 variant T335_08L/GpL16-k0 (He Ab) (antibody, human IgG1, kappa)
heavy 1: not shown
heavy 2: not shown
light: B1 light
notes: Substitution in one H chain only; position in EU numbering; also called T335L heterodimerized antibody
B18: GpH7-A5/GpH7-B3 variant S239_09D/GpL16-k0 (He Ab) (antibody, human IgG1, kappa)
heavy 1: not shown
heavy 2: not shown
light: B1 light
notes: Substitution in one H chain only; position in EU numbering; also called S239D heterodimerized antibody
B19: GpH7-A5/GpH7-B3 variant T335_04F/GpL16-k0 (He Ab) (antibody, human IgG1, kappa)
heavy 1: not shown
heavy 2: not shown
light: B1 light
notes: Substitution in one H chain only; position in EU numbering; also called T335F heterodimerized antibody
B20: GpH7-A5/GpH7-B3 variant S239_07I/GpL16-k0 (He Ab) (antibody, human IgG1, kappa)
heavy 1: not shown
heavy 2: not shown
light: B1 light
notes: Substitution in one H chain only; position in EU numbering; also called S239I heterodimerized antibody

This experiment has as its target T1, FcγRIIb extracellular domain with …. Description: SPR (Biacore), antibody captured on antigen-peptide chip, FcgRIIb as analyte; binding relative to GpH7-A5/GpH7-B3/GpL16-k0 (HeCon Ab) = 100. On the technique in general: In SPR one partner is held on a chip, and binding of the other changes the refractive index at the surface.
As to B1, the He/Con_2b is 379 % of control. As for B2, the He/Con_2b is 107 % of control.

B3: the He/Con_2b was 192 % of control. In the case of B4, the He/Con_2b is 108 % of control. As for B5, the figure is 108 % of control; as for B6, 243 % of control; as for B7, 144 % of control. In the case of B8 it was 119 % of control; in that of B9, 310 % of control. In the case of B10 it was 105 % of control. Consider B11, for which the He/Con_2b was 103 % of control. Take B12: the He/Con_2b was 110 % of control. As to B13, the He/Con_2b was 104 % of control. In the case of B14 it was 192 % of control; in that of B15, 140 % of control; in that of B16, 109 % of control.

In the case of B17, the He/Con_2b is 104 % of control. As to B18, the He/Con_2b is 206 % of control. For the molecule B19, the He/Con_2b is 103 % of control. On to B20, for which the He/Con_2b was 107 % of control.

Source of the values: US20180155451A1 (published 2018).
